The data set can be described thus: soluble fraction after stress (log2 fold change); higher = more stays soluble; pooled small domains, quantitative proteomics. The note with it: stress: 50 degC. Summed up: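 Pooled custom libraries of small protein domains were each held under stress at 50°C. The read-out, high-throughput quantitative proteomics, tracked how much of each protein stayed soluble. This is reported as a base-two log fold change used to indicate aggregation propensity. Higher values mean more protein remains in solution.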
Take “HMSFVDFYGLFTTELQRLAELPVTADELIKNTGLHKSQLTDWLKRAEEDGVVKKLNRPVRYQVEKK”: the “soluble fraction (log2)” value was -0.987. Under “HMSGAQIQQLLESRAPQPGMNPDMIVRRKTYMNNVFNALKGALLRVANGSSPEEVKTEVDAAIQVDPDKL” stands 0.0889. With “HMSGEVLTAVVPETASGERLDKVLPQIFPPYSRSQLQTWLKEGRVTLDREIPAARLAVIGGETLRLEVPSL”, the “soluble fraction (log2)” value is -0.145.

For the sequence “HMSGFFVYPNPAKSNIIHFPNKKSFYIYDTSGRLLIEGKGKDFIDVSTLDRGVYLLKTFENDIVKIII”, the “soluble fraction (log2)” value was -1.25. Next, “HMSGGIVRLAVKPWGEVFVDGASRGITPPLKQLTLDAGVHRIEIRNPAGPSWTKDVDVVAGQPTTVSHRF”: 0.0289; “HMSGITDIITDGKATSRPVVVTDGGHIRVLSPYTSFAIYTLGGMSLPTESRLEPGIYIVVVDSNAVKVAV”: -0.619. Next, “HMSGLGELTPRELEVLELMAQGLSNSQIAGRLFLSGAAVAKHVSSIFSKLGFEPGDENRRVRAILAFLNR”: -0.422; “HMSGLLTTSKLAQKHKMKTEPMLEKLTAAGYLEWRDDKHSLTEQGKKAGGQFKTGRFGAYFLWPEDLV”: -0.259; “HMSGPDGLTEREIEVLRLLASGLSNRAIGERLYISTNTAANHVRSILLKTGAANRTQAAMYAADHEML”: -1.37. Under “HMSGPFTELTPREREILSHLAEGQSNKVIARHLQISDGTVKLHVKAILRKLEVHSRVEAAVMAVEHGV” stands -1.96; under “HMSGPMVPNVVGLSEEMARALLSDYSITIKHAHDGVIPKDRVASQLPLATTHAKVGSSVVLTIS”, -0.354; under “HMSGQLTEEQVKQIVTTAVKNSSGSTLTAAEVSRIVSTAVANNLTADQVKTVVNNALAGITTDISTLKA”, 0.0898. On to “HMSGSFDVTLDYLNSLRNLYPAIDVEQEFRKMYAWLDSNPKNRKTERGIKRFITGWLGRAQDKAP”, for which the “soluble fraction (log2)” value is -1.12. Next, “HMSGSLLQTRQRLQALTDLGHYKGDLAAAWGPEAIEALKRAQAALGITVDGKWGPETEDAIQVALQAQT”: 0.0305. Under “HMSGSPREQAESEYRKAIAAVNQGRVSEATESLRAALRLDAFQVAARQLLVKLLLEAKNQDEAIQVLR” stands -0.463; under “HMSGTMYATAEVNVRSTYSSDGTIYGTLSKGTAVEITGTTDNGWVRVKYNGTTAYVYADYLSWKAP”, -0.671; under “HMSGYAIVNNQPGRTLNLRNSPSQSNNIIGQIPSGTRLQLISRGETWSEVIFQTTRGFVMSSFLRFET”, -0.809. Take “HMSHGNAALTPRQRLRLARLVVDDQWSVSAAAEFFRVSYPTAAKWARRYVELGPAGMADRSS”: the “soluble fraction (log2)” value was -1.42. Next, “HMSHRVGDVVELTAVRMNDQGVFLDAGTGNTSDDILLHKHQMTSPVSVGDKVKVQLYLDAKNRITASMKL”: -0.000204; “HMSIEIIEITSNSSPKNLSEIIDIDATQIVADLMGLGIMKAIDTPLENSEIEQLLEKYNLIAEFVE”: -1.47. Next, “HMSILEIFGRNVQKYRKEQRLSQEKLAEYAGLHRTYIGMIERAEKNITLVNIEKIAKALNINLTKLLE”: -3.14. Next, “HMSILTELDIGDKVEVVAGPFKGIQANITRIEPVRKEVTVILLDAPYQLPVTVDADYLKIIQKS”: -0.155; “HMSINISFEPADHLGKDVIFIRFPYDNEWIQRVRKLKGAKWSQSQRAWHVPDTEHYRTLFQLPQKI”: -2.6.

With “HMSIQDLMNSKDLSGFKVEMLSNEDIVKYKSMLQSSGFSESQAEQLALQRGLPTSELIKLRTRISDVAVT”, the “soluble fraction (log2)” value was 0.0344. Next, “HMSIQELMNSKDLSSFKVEMLSDEDIAKYKGLLQNSGLTEAQAEQMALQRGLPSSELLKLKARLSGI”: 0.128; “HMSIQREIILEVIKNNRTHPTAEEIYILVTKKEPKISRSTVYRNINILVEKGIIEKITIATGPDRYDY”: -1.4.

In the case of “HMSISDEDFAKLLDFVKEKWDAGELDNAEDIKAAISEGEKEFGVSLDESTRTTLASALQQLN”, the “soluble fraction (log2)” value was -0.134.

With “HMSIYDAPIEDLKFSTRIFNSLKRADIHTVADLIAHSRDDLMKVRNLGATSLDELIEKLGTHGLQLADP”, the “soluble fraction (log2)” value was -0.254. Next, “HMSIYYQIYESLKKDLSNNLYKPGEKLPSENVLSKRFGVNRHTIRRSLQLLKNEGILFSKRGSGIIVHD”: -2.32. Next, “HMSKDKEKRTREHVLGILKKYDKVMTDKAFTVFKKMIKDESILEMELIKLINFIGERKEIRSKDVLAVVTE”: 0.281. With “HMSKEIQNILASLPSVDVLLKQIDPIYPHGKAKEATQQVVARLRESVVDGTRKTVIDQKEVIAMIHKQLEE”, the “soluble fraction (log2)” value was found to be 0.143. Next, “HMSKETTYEVLSLKGDEWQTDTIYSDRDEAIEAARNLHGDPHIDGAKVISEVYDDKTGGSKETTIFNT”: 0.226; “HMSKHAIQNELEKIEGIGKQTADSLLKEFKSVKKLRTLPLSEIEKVIGKSKATIVFEALHKDK”: 0.133. Under “HMSKHATLLEALADLSVKLKPHSQLPSERALSEEYGVSRMTLRRAIDVLQARGYIYSVPSKGLFVSEP” stands -1.74; under “HMSKHATLLEALAELTVKLKPHTQLPSERQLSEDFGVSRMTLRRAIDVMQSRGYIYTVPSKGLYVSEP”, -1.59. Under “HMSKIRTFRVKTVAVDQAYQVLKDYSPIKISTESNAVIIDLDESKTPAEIAGYLEKNGIKVDNIEVIAESE” stands 0.179; under “HMSKISKENEQQVIQIVQTLLLNVQDKSLITTQILNEKINLAVSLDTKYKENLDRDYIIEELIRRYSVW”, -1.12; under “HMSKKIVLPAAITVKKFSETLDMPLGTVISELMKNGILATINERIDFETASIIAQDLGYEVSEEV”, 0.173.

With “HMSKKQEQALQSREKLLDAATALFAEHGYRDTSVQAIGEKAGVSRGSIFWHFGSKEGLLWAVVERAFTA”, the “soluble fraction (log2)” value is 0.265. Next, “HMSKKTQKDEVVDLFLKTGNEPLHYKEISKKTGIIVHNVRRITGQNVVGKTDNPVFKRVSPGVYKLID”: -0.546. Under “HMSKLSVSSLSSPEVQNQLKAAGIDVNSRQYQVVMKDMMGALDGRAGYTTVSAIKNRMRQYNADGDY” stands 0.474; under “HMSKMVEMSQEKSREKVARVKIEIQKMLDRKERVTVSGLERATGFSNSFFYRNEEVNQAVKEAQLKQ”, 0.0985. As to “HMSKNIRQQFLDVLPKTFDRNQYLETAKKLSINAKTAEGYIKKFVEANLLDHPKHNHYINLKKVEEVETK”, the “soluble fraction (log2)” value stood at 0.229. Next, “HMSKNYYEILGVTPDVELSQLKAVYRRLVRKYHPDINPDGELIFKDITEAYEVLSDEKQRKQYDMINGF”: -0.0246; “HMSKPILSFVDPEKDPSHYVKRYITEETYKDWFSEHFPDYTLYEGIGITQEEYRNIVNELTKP”: -0.493. For the sequence “HMSKPIYSELLREIRSGDVKELTLIPQRREVLVEYSDGRKATVSILANDQQVLRTAESAGVPLTVK”, the “soluble fraction (log2)” value is -0.0265. With “HMSKPVFQTHSVRSADSATVFDVLQTLLAGTPDARIAIDPKTNAIVAWARPETQEVIAKSIMEMEG”, the “soluble fraction (log2)” value came out at 0.0132.

Take “HMSKQIEVPDVTDMTVSDAIDVLQDKGFVVSDEQKEVASSEIEEGRVVRTSPAVGSKRKDGTVVTLYVSI”: the “soluble fraction (log2)” value amounted to 0.045. Regarding “HMSKTEEIAYTTFVKYLENKDIEEVYLGNNAKIKVILKDGREMITDNPRTADFKKDLLLHDIKVVEKT”, the “soluble fraction (log2)” value was 0.219.

For “HMSKYGIAYSEVLEILKHIPIEDYNKIPRNEIELFETYADKDFTFNYDSSKTLEEQNVSNITKGIIIL”, the “soluble fraction (log2)” value is -0.103. As for “HMSLEEQNGAKDRQVEAYELLLKAQRALDQEDTAGFQAAMKDLEPLSSQLDAQGQTLYHELLPFVS”, the “soluble fraction (log2)” value is -0.0812. Next, “HMSLGSNISRLRAEKHLSQGDLAEALDVSRQSVSKWETDGSVPDLDKLVKLSRIFGVTLDELVTGTP”: 0.0174; “HMSLIHEQSLKEIRIFINNLPESLRTAFTLREQDGLSYEEISKITDTPIGTVRSRIFRARESILEHINEEL”: -1.89. Next, “HMSLLTPLEEARIVIEELIIPQKLTLDLLPQNSQIRKLQHEIINHYRLKGISIGDGKNRRVRIYS”: -0.133.

For the sequence “HMSLMHEESLKNIRRFINSLPESLRTAFTLREQDGLSYEEIGVITETPIGTVRSRIFRAREAILEHIKKEL”, the “soluble fraction (log2)” value is -2.24.

In the case of “HMSLMLYVEDVDTAFKKAIELGATEIRPVHDQFYGDRAGTLQDPFGHIWIIGTHKEDVSDEELNNRIGNI”, the “soluble fraction (log2)” value was -0.0131.

For “HMSLPNNLIEQLQDPEPKARRRAVRRLAATRDPSAIPLLRNVYLQDGDDRVRDAAEAALVQFRAMQHN”, the “soluble fraction (log2)” value stood at 0.0586. Under “HMSLPTYVQISEAIARRITAGQWLDGERLPPERTMAAEFGVAVGTLRKALSRLQDQKLLRRLQGSGNYINI” stands -1.57; under “HMSLREKNKARTRTAILNAARDLAKQGQWDAITTRQIADAAGVSYQTLYNYYPSKASILVEMLL”, -1.45; under “HMSLSDDIAQTLRQLGFDRDVSETLANDVLPAMPTRQDVIDLLGTLGIEKHVAADFANFVVLN”, -0.723. On to “HMSLSEYLSAPVLEGQRNHALFSAVMQAREQGWDEWQIRTTIGAKAEADGLRHAEIAATIRSAMSREITP”, for which the “soluble fraction (log2)” value was -0.121. Next, “HMSLSIKINHESVGLRLDQFLQEHYYKQQSRSYVQHAIKEGYILVNGQSVKNGYMLKLDDLIELEAI”: -1.59; “HMSLSNMIGKNIQWTHVTKTKDAEGNPKTNSETFAGNVRGVKVLNGKPMVVAQDAKGKLHEVEVSEIEAIA”: 0.234. Under “HMSLTEDELFHALTIYANREGINIGATELKYLLTHYARNLGKLIELINQVSQAATMQKKPITIPLIKHS” stands -0.428; under “HMSLTGFYNLTFKQADRLSVIDEAGEEVYKQAIAMGSTTKTIDLSALNAGVYFIRIYNGEVIAQEKIVLN”, -1.25; under “HMSLTYTGKFILNHNNIDQSSFNINIYLVNKQTIIQITKPFYGNVLNIKFNEENDLIISPKQFS”, -0.146. Next, “HMSMDPYTVLGVNKSSTDSQIKNAYKNLAKQHHPDRGGNEAKFKEISTAYEQIKTAEKRQQYDMSQQF”: 0.383. Turning to “HMSMFAQQLKDLRKKIPGLTQTDMAKKLGIAKTTYASYEQGKRTPDIETQNKIADFFNVSLDYLHG”, the “soluble fraction (log2)” value was -0.0838.

Values taken from the domain aggregation screens of Martell et al. (2025).
